Article PMC12892918, “CoREST complex inhibition alters RNA splicing to promote neoantigen expression and enhance tumor immunity” (JCI Insight, 2025)
Values belong to the binder of their own block, whether it stands above or below them.

Target: LSD1 (aa 171–852) and RCOR1 (aa 286–485) complex (truncated LC) (UniProt O60341 171-852; Q9UKL0 286-485)
Experiment: MST; Cy5-labelled His-tag U2AF2 fragments mixed with serially diluted truncated LSD1/RCOR1
Conditions: both partners purified

- Kd: 14 µM
B1: His-tag U2AF2 fragment (aa 85–471), Cy5-labelled (domain or fragment)
chain: KKKVRKYWDVPPPGFEHITPMQYKAMQAAGQIPATALLPTMTPDGLAVTPTPVPVVGSQMTRQARRLYVGNIPFGITEEAMMDFFNAQMRLGGLTQAPGNPVLAVQINQDKNFAFLEFRSVDETTQAMAFDGIIFQGQSLKIRRPHDYQPLPGMSENPSVYVPGVVSTVVPDSAHKLFIGGLPNYLNDDQVKELLTSFGPLKAFNLVKDSATGLSKGYAFCEYVDINVTDQAIAGLNGMQLGDKKLLVQRASVGAKNATLVSPPSTINQTPVTLQVPGLMSSQVQMGGHPTEVLCLMNMVLPEELLDDEEYEEIVEDVRDECSKYGLVKSIEIPRPVDGVEVPGCGKIFVEFTSVFDCQKAMQGLTGRKFANRVVVTKYCDPDSYHR
modifications: Cy5 dye at lysine residues (reactive NHS-ester dye)
notes: U2AF2, aa 85-471; also called U2AF2 85–471; Fluor-U2AF2

- Kd: 16 µM
B2: His-tag U2AF2 fragment (aa 241–471), Cy5-labelled (domain or fragment)
chain: NPSVYVPGVVSTVVPDSAHKLFIGGLPNYLNDDQVKELLTSFGPLKAFNLVKDSATGLSKGYAFCEYVDINVTDQAIAGLNGMQLGDKKLLVQRASVGAKNATLVSPPSTINQTPVTLQVPGLMSSQVQMGGHPTEVLCLMNMVLPEELLDDEEYEEIVEDVRDECSKYGLVKSIEIPRPVDGVEVPGCGKIFVEFTSVFDCQKAMQGLTGRKFANRVVVTKYCDPDSYHR
modifications: Cy5 dye at lysine residues (reactive NHS-ester dye)
notes: U2AF2, aa 241-471, composed of RRM2 and UHM; also called U2AF2 241–471; Fluor-U2AF2
